# In patent US20090175866A1 (published 2009):
# Changes are numbered by the printed parent chain.
# T1: FGFR1 (Table 1) (UniProt P11362 22-376, limits assumed)
# T1 construct: the construct is not described
# T1 sequence (looked up): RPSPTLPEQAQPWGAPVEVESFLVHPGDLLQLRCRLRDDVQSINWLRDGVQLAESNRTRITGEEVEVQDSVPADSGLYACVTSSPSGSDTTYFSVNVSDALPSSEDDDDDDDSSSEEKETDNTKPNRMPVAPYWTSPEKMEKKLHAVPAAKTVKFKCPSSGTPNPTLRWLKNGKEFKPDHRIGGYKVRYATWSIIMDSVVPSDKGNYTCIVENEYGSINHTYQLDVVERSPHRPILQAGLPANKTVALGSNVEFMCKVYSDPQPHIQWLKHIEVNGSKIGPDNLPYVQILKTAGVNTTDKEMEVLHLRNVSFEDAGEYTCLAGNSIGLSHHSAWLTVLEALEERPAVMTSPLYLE
# B1: PRO-029 (Fab, V domains shown)
# VH: QVQLVQSGAEVKKPGASVKVSCKASGYTFTSYYMHWVRQAPGQGLEWMGWINPNSGGTNYAQKFQGRVTMTRDTSISTAYMELSSLRSEDTAVYYCARTWQYSYFYYLDGGYYFDIWGQGTLVTVSS
# VL: DIVLTQSPATLSLSPGERATLSCRASQSVSSSYLAWYQQKPGQAPRLLIYGASSRATGVPARFSGSGSGTDFTLTISSLEPEDFATYYCQQTNNAPVTFGQGTKVEIKR
# notes: HuCAL clone
# B2: PRO-021 (Fab, V domains shown)
# VH: QVQLVQSGAEVKKPGSSVKVSCKASGGTFSSYAISWVRQAPGQGLEWMGGIIPIFGTANYAQKFQGRVTITADESTSTAYMELSSLRSEDTAVYYCARDNWFKPFSDVWGQGTLVTVSS
# VL: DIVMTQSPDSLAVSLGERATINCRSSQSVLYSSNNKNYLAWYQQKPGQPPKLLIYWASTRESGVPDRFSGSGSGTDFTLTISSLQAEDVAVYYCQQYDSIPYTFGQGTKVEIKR
# notes: HuCAL clone; the IC50 may be of the Fab-dHLX format
# B3: PRO-012 (Fab, V domains shown)
# VH: QVQLKESGPALVKPTQTLTLTCTFSGFSLSTSGVGVGWIRQPPGKALEWLALIDWDDDKYYSTSLKTRLTISKDTSKNQVVLTMTNMDPVDTATYYCARYHSWYEMGYYGSTVGYMFDYWGQGTLVTVSS
# VL: DIELTQPPSVSVAPGQTARISCSGDALGDKYASWYQQKPGQAPVLVIYDDSDRPSGIPERFSGSNSGNTATLTISGTQAEDEADYYCQSYDFDFAVFGGGTKLTVLG
# notes: as for B2
# B4: PRO-001 Fab (Fab, V domains shown)
# VH: QVQLQQSGPGLVKPSQTLSLTCAISGDSVSSNSAAWNWIRQSPGRGLEWLGRTYYRSKWYNDYAVSVKSRITINPDTSKNQFSLQLNSVTPEDTAVYYCARSYYPDFDYWGQGTLVTVSS
# VL: DIELTQPPSVSVAPGQTARISCSGDALGDKYASWYQQKPGQAPVLVIYDDSDRPSGIPERFSGSNSGNTATLTISGTQAEDEADYYCQSYDGPDLWVFGGGTKLTVLG
# notes: Human Fab from the HuCAL-Fab-1 library; also called human anti-FGFR3 Fab PRO-001; anti-FGFR3 antibody
# B5: PRO-002 (Fab, V domains shown)
# VH: QVQLVQSGAEVKKPGASVKVSCKASGYTFTSYYMHWVRQAPGQGLEWMGWINPNSGGTNYAQKFQGRVTMTRDTSISTAYMELSSLRSEDTAVYYCARDFLGYEFDYWGQGTLVTVSS
# VL: B4 VL with G92Y, P93S, D94A, L95D, W96Y
# notes: as for B2
# B6: PRO-026 (Fab, V domains shown)
# VH: QVQLVQSGAEVKKPGASVKVSCKASGYTFTSYYMHWVRQAPGQGLEWMGWINPNSGGTNYAQKFQGRVTMTRDTSISTAYMELSSLRSEDTAVYYCARGYWYAYFTYINYGYFDNWGQGTLVTVSS
# VL: DIALTQPASVSGSPGQSITISCTGTSSDVGGYNYVSWYQQHPGKAPKLMIYDVSNRPSGVSNRFSGSKSGNTASLTISGLQAEDEADYYCQSYDNNSDVVFGGGTKLTVLG
# notes: HuCAL clone; the VL is headed 'MS-Pro-26-VL'; also called MS-Pro-26
# B7: PRO-024 (Fab, V domains shown)
# VH: B2 VH with D99V, W101H, F102W, K103T, P104Y, F105T, S106F, V108Y
# VL: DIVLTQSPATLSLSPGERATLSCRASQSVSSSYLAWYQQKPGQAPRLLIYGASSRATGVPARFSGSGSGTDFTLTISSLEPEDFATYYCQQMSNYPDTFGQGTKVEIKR
# B8: PRO-054 (Fab, V domains shown)
# VH: QVQLVQSGAEVKKPGASVKVSCKASGYTFTSYYMHWVRQAPGQGLEWMGWINPNSGGTNYAQKFQGRVTMTRDTSISTAYMELSSLRSEDTAVYYCARNMAYTNYQYVNMPHFDYWGQGTLVTVSS
# VL: B3 VL with F92Y, D93F, F94K, A95L
# notes: HuCAL clone
# B9: PRO-055 (Fab, V domains shown)
# VH: QVQLVQSGAEVKKPGASVKVSCKASGYTFTSYYMHWVRQAPGQGLEWMGWINPNSGGTNYAQKFQGRVTMTRDTSISTAYMELSSLRSEDTAVYYCARSMNSTMYWYLRRVLFDHWGQGTLVTVSS
# VL: B6 VL with N95M, N96Y, S97N, D98Y, V99I
# Target: T2, wild type FGFR3 expressed on cells (UniProt P22607 23-806, limits assumed)
# T2 construct: whole, on cells; the myeloma cell lines and patient cells are human; also called WT FGFR3; B9-FGFR3^WT
# Assay: FACS
# T2 sequence (P22607 23-806 limits assumed): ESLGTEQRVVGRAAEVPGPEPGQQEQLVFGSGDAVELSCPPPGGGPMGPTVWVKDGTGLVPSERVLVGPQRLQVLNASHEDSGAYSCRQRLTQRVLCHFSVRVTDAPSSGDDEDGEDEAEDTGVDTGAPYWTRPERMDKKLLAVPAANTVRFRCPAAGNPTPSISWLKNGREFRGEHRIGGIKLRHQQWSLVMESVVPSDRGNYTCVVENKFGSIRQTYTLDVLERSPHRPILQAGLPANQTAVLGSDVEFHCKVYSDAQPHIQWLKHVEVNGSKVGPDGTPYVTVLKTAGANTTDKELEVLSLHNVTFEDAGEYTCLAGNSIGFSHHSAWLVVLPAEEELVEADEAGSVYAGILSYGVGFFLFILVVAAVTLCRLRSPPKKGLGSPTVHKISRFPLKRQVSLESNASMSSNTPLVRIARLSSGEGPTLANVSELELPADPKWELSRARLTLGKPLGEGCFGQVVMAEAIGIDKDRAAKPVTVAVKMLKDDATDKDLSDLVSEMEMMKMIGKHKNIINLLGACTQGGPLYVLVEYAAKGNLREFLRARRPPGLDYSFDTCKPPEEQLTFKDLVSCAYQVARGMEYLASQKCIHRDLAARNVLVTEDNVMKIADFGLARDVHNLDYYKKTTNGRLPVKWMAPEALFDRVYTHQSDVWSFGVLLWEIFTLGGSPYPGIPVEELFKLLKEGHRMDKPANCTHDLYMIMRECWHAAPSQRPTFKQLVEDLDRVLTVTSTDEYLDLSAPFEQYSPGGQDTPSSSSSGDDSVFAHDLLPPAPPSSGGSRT
row,Kd,Binder
1,< 1 nM,B1
2,1.1 nM,B2
3,6.5 nM,B3
4,0.7 nM,B4
5,43 nM,B5
6,1.4 nM,B6

# Target: T2, wild type FGFR3 expressed on cells
# Assay: cell-based or functional assay
row,"IC50 FGFR3 (FGF9), FDCP-FGFR3 proliferation assay (dHLX format)",Binder
1,20 nM,B1
2,50 nM,B2
3,70 nM,B7
4,58 nM,B3
5,45 nM,B8
6,19 nM,B4
7,360 nM,B5
8,70 nM,B6
9,34 nM,B9

# Target: T1, FGFR1 (Table 1)
# Assay: BIAcore and/or FACS
row,Kd,Binder
1,29 nM,B1
2,2.5 nM,B8
3,32 nM,B6

# Target: FGFR3-F384L expressed on B9 cells (UniProt P22607 23-806)
# Assay: cell-based or functional assay
# Sequence of FGFR3-F384L expressed on B9 cells (P22607 23-806 F384L limits assumed): as the sequence (P22607 23-806 limits assumed) above, with F362L counted along it
row,IC50 of FGF-stimulated growth of B9 cells expressing FGFR3 F384L,Binder
1,~3 µg/mL,B4

# Target: T2, wild type FGFR3 expressed on cells
# Assay: cell-based or functional assay
# Remark: another data set of the same source
row,IC50 of FGF stimulated proliferation of FDCP-FGFR3 cells (XTT),Binder
1,0.5 µg/mL,B4

# Target: FGFR3-Y373C expressed on B9 cells (UniProt P22607 23-806)
# Assay: cell-based or functional assay
# Sequence of FGFR3-Y373C expressed on B9 cells (P22607 23-806 Y373C limits assumed): as the sequence (P22607 23-806 limits assumed) above, with Y351C counted along it
row,IC50 of FGF-stimulated growth of B9 cells expressing Y373C-FGFR3,Binder
1,~3 µg/mL,B4
